Measurements taken from PMC10786891, “Massively parallel profiling of RNA-targeting CRISPR-Cas13d”.
Changes are numbered by the printed parent chain. Names and notes keep the numbering of the source.

T1: EsCas13d, nuclease-dead (Eubacterium siraeum, UniProt B0MS50, R295A;H300A;R849A;H854A)
T1 sequence: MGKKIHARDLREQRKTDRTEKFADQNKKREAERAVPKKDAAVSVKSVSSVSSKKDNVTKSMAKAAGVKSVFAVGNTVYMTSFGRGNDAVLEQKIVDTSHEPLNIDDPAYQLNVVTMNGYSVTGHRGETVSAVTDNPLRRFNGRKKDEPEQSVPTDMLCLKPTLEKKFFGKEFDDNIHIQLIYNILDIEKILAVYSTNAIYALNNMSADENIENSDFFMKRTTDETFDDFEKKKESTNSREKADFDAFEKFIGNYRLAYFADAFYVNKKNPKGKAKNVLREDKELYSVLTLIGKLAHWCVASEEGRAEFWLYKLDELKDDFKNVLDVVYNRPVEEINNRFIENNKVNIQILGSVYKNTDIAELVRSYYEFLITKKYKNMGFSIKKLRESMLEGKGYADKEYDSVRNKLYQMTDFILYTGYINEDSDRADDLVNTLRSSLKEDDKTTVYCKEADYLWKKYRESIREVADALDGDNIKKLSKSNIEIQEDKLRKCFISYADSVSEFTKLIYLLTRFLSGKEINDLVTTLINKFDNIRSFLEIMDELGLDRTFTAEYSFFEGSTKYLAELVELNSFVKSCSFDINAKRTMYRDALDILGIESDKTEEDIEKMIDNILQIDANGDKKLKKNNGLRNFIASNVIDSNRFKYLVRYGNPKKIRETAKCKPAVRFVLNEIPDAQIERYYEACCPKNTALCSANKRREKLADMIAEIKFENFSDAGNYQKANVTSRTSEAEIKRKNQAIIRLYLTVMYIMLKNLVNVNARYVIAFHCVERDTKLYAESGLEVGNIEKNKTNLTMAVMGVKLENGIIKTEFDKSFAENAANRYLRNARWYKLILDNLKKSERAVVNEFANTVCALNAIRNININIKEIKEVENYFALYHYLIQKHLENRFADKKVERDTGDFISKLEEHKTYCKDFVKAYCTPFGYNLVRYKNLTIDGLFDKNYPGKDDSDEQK

B1: target 1 insC 3' of 19,insC 3' of 11 (mixed)
RNA 1: CACCCGUGCAAAAAUGCAGGGGUCUAAAACUGAGCGGAUAACCUCUCUAUGG
RNA 2: GGGAAUGGAUCCACAUCUACGAAUUCGUACCAUCAGAGAGGUCUAUCCGCUCACCGAGAUCGGAAGAGCACACGU
B2: target 1 insC 3' of 5,insU 3' of 2 (mixed)
RNA 1: B1 RNA 1
RNA 2: GGGAAUGGAUCCACAUCUACGAAUUCGUACCAUAGAGAGGUUAUCCGCCUCUACCGAGAUCGGAAGAGCACACGU
B3: target 1 insG 3' of 18,insA 3' of 2 (mixed)
RNA 1: B1 RNA 1
RNA 2: GGGAAUGGAUCCACAUCUACGAAUUCGUACCAUAGGAGAGGUUAUCCGCUCAACCGAGAUCGGAAGAGCACACGU
B4: target 1 U11C,C21A (mixed)
RNA 1: B1 RNA 1
RNA 2: GGGAAUGGAUCCACAUCUACGAAUUCGUACAAUAGAGAGGCUAUCCGCUCACCGAGAUCGGAAGAGCACACGU
B5: target 1 A9U,A18U (mixed)
RNA 1: B1 RNA 1
RNA 2: B4 RNA 2 with A31C, A34U, C41U, A43U
B6: target 1 insU 3' of 14,insA 3' of 6 (mixed)
RNA 1: B1 RNA 1
RNA 2: B3 RNA 2 with G36A, A37G, G38A, A39U, G48A, C49G, U50C, C51U, A52C
B7: target 1 C2G,G12A (mixed)
RNA 1: B1 RNA 1
RNA 2: B4 RNA 2 with A31C, G40A, C41U, C50G
B8: target 1 insA 3' of 10,insU 3' of 7 (mixed)
RNA 1: B1 RNA 1
RNA 2: B2 RNA 2 with U44A, C45U, G47U, C49G, U50C, C51U, U52C
B9: target 1 C6G,C7G (mixed)
RNA 1: B1 RNA 1
RNA 2: B4 RNA 2 with A31C, C41U, C45G, C46G
B10: target 1 U19A (mixed)
RNA 1: B1 RNA 1
RNA 2: B4 RNA 2 with A31C, U33A, C41U
B11: target 1 C7G,G13A (mixed)
RNA 1: B1 RNA 1
RNA 2: B4 RNA 2 with A31C, G39A, C41U, C45G
B12: target 1 U10C,A16C (mixed)
RNA 1: B1 RNA 1
RNA 2: B4 RNA 2 with A31C, A36C, C41U, U42C
B13: target 1 insC 3' of 22,insG 3' of 22 (mixed)
RNA 1: B1 RNA 1
RNA 2: GGGAAUGGAUCCACAUCUACGAAUUCGUACCGCAUAGAGAGGUUAUCCGCUCACCGAGAUCGGAAGAGCACACGU
B14: target 1 insG 3' of 22,insA 3' of 6 (mixed)
RNA 1: B1 RNA 1
RNA 2: B1 RNA 2 with C31G, A32C, U33A, C34U, C43U, U44A, A45U, U46C, C48A
B15: target 1 C4U,U10C (mixed)
RNA 1: B1 RNA 1
RNA 2: B4 RNA 2 with A31C, C41U, U42C, C48U
B16: target 1 insA 3' of 19,insG 3' of 4 (mixed)
RNA 1: B1 RNA 1
RNA 2: B3 RNA 2 with G35A, U50G, C51U, A52C
B17: target 1 insU 3' of 22 (mixed)
RNA 1: B1 RNA 1
RNA 2: GGGAAUGGAUCCACAUCUACGAAUUCGUACUCAUAGAGAGGUUAUCCGCUCACCGAGAUCGGAAGAGCACACGU
B18: target 1 U3A,A14C (mixed)
RNA 1: B1 RNA 1
RNA 2: B4 RNA 2 with A31C, A38C, C41U, U49A
B19: target 1 insU 3' of 17,insU 3' of 6 (mixed)
RNA 1: B1 RNA 1
RNA 2: B3 RNA 2 with G36U, G48U, C49G, U50C, C51U, A52C
B20: target 1 insA 3' of 10,insU 3' of 5 (mixed)
RNA 1: B1 RNA 1
RNA 2: B2 RNA 2 with U44A, C45U, G47C, C48G, C49U, U50C, C51U, U52C
B21: target 1 A9C,C21U (mixed)
RNA 1: B1 RNA 1
RNA 2: B4 RNA 2 with A31U, C41U, A43C
B22: target 1 G12A,A18C (mixed)
RNA 1: B1 RNA 1
RNA 2: B4 RNA 2 with A31C, A34C, G40A, C41U
B23: target 1 G5U,A16C (mixed)
RNA 1: B1 RNA 1
RNA 2: B4 RNA 2 with A31C, A36C, C41U, G47U
B24: target 1 insA 3' of 11,insA 3' of 6 (mixed)
RNA 1: B1 RNA 1
RNA 2: GGGAAUGGAUCCACAUCUACGAAUUCGUACCAUAGAGAGGUAUAUCCAGCUCACCGAGAUCGGAAGAGCACACGU
B25: target 1 insG 3' of 22,insG 3' of 16 (mixed)
RNA 1: B1 RNA 1
RNA 2: B1 RNA 2 with C31G, A32C, U33A, C34U, A39G, G40A, U42G, C43U
B26: target 1 insG 3' of 22,insA 3' of 22 (mixed)
RNA 1: B1 RNA 1
RNA 2: B13 RNA 2 with C31G, G32A
B27: target 1 insC 3' of 13,insA 3' of 11 (mixed)
RNA 1: B1 RNA 1
RNA 2: B13 RNA 2 with G32A, C33U, U35G, A40C, G42U, U43A
B28: target 1 U8G,G12C (mixed)
RNA 1: B1 RNA 1
RNA 2: B4 RNA 2 with A31C, G40C, C41U, U44G
B29: target 1 A1U,G15C (mixed)
RNA 1: B1 RNA 1
RNA 2: B4 RNA 2 with A31C, G37C, C41U, A51U

biological target: T1, EsCas13d, nuclease-dead; test: crRNA (strand 1, pre-loaded); Mg2+; 40 mM Tris-HCl pH 7.5, 150 mM NaCl, 6 mM MgCl2, 1 mM DTT, 0.1% Tween-20, 0.2 mg/ml BSA; 25 C; 10 min per concentration, then washed; settings: tags: His6-TwinStrep-SUMO cleaved; N-terminal SNAP kept (SNAP-Surface 488); label: 3' end held by stalled T7 RNA polymerase

In order of rising Kd:
1. B7  3.51 ± 0.18 nM
2. B21  9.9 ± 0.4 nM
3. B13  12.6 ± 0.6 nM
4. B24  13.2 ± 1 nM
5. B9  13.3 ± 0.7 nM
6. B20  14.2 ± 1.1 nM
7. B16  15.1 ± 0.7 nM
8. B2  15.2 ± 0.6 nM
9. B11  15.8 ± 1.5 nM
10. B28  16.4 ± 0.8 nM
11. B27  19.1 ± 2.2 nM
12. B18  20.8 ± 1 nM
13. B10  28.8 ± 1.5 nM
14. B19  29.7 ± 2.9 nM
15. B26  30.8 ± 2.9 nM
16. B17  38 ± 5 nM
17. B8  39.3 ± 2.6 nM
18. B5  44.9 ± 3.5 nM
19. B1  48 ± 9 nM
20. B4  51 ± 6 nM
21. B22  51 ± 7 nM
22. B15  52 ± 23 nM
23. B14  54 ± 18 nM
24. B29  56 ± 24 nM
25. B25  57 ± 8 nM
26. B23  60 ± 7 nM
27. B3  73 ± 25 nM
28. B6  80 ± 32 nM
29. B12  95 ± 8 nM
